Measured values from patent US20250084183A1.

Target: CD99 on RD-ES and SK-ES-1 Ewing sarcoma cells (UniProt P14209)
Assay: not stated (given with the antibody's description, refers to FIG. 57)

αCD99 antibody (clone: 12E7) gave a Kd of 10 nM.
